Measured values taken from patent US20140221622A1.

Molecular target: EGFR on U87MG.de2-7 cells (UniProt P00533)
Assay: flow cytometry on U87MG.de2-7 cells, Alexa Fluor 488 anti-human IgG Fc

EC50: 9 nM
B1: DB001 DVD-Ig (CD3 and EGFR) (bispecific antibody)
VH: QVQLQESGPGLVKPSQTLSLTCTVSGYSISSDFAWNWIRQPPGKGLEWMGYISYSGNTRYQPSLKSRITISRDTSKNQFFLKLNSVTAADTATYYCVTAGRGFPYWGQGTLVTVSSASTKGPEVQLVESGGGLVQPGGSLRLSCAASGFTFSTYAMNWVRQAPGKGLEWVGRIRSKYNNYATYYADSVKDRFTISRDDSKNTAYLQMNSLRAEDTAVYYCTRHGNFGNSYVSWFAYWGQGTLVTVSS
VL: DIQMTQSPSSMSVSVGDRVTITCHSSQDINSNIGWLQQKPGKSFKGLIYHGTNLDDGVPSRFSGSGSGTDYTLTISSLQPEDFATYYCVQYAQFPWTFGGGTKLEIKTVAAPSVFIFPPDAQVTQSPSSLSASVGDRVTITCRSSTGAVTTSNYANWVQEKPGKLFKGLIGGTNKRAPGVPSRFSGSGSGTDATLTISSLQPEDFATYFCALWYSNLWVFGGGTKVEIKR
